Experimental findings from patent publication US20250186614A1, “COMPACT DRUG RESPONSIVE DOMAINS FOR REGULATION OF FUNCTION/ABUNDANCE AND DELIVERY OF POLYPEPTIDE PAYLOADS” (OBSIDIAN THERAPEUTICS, INC., priority 2022, published 2025) are described below.

Where two headings read alike, the source gives them in different places.

One test deals with Jurkat cells. In words: Tacrolimus dose response of FKBP13-AcGFP-mCherry constructs stably transduced into Jurkat cells, GFP MFI by flow cytometry. In kind it is cell-based. Also on record: Basal: unit not given here. The following applies: for basal AcGFP expression: absence of tacrolimus. In a few lines: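 GFP geometric MFI was read by flow cytometry in mCherry+ cells and curve-fitted against tacrolimus dose. Cells were Jurkat E6-1, lentivirus-transduced with FKBP13-AcGFP-mCherry fusion constructs until 10-25% mCherry-positive on day 5 post-transduction.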
On the technique in general: In flow cytometry, cells or beads pass a laser one at a time.

Test [1] is described as follows: Example 4: dose response of FKBP constructs 160-255, Ec50, Ec90 and fold change (raw and normalized to mCherry). Type of test: cell-based. The following applies: for FC (fold change): fold change during initial analysis. The procedure: Additional experiments were performed for constructs FKBP-160-292.
Setting [2] is: FKBP constructs 160-255, not normalized, read-out: EC90.
Where [3] appears, read: normalized to mCherry, read-out: EC90 (Norm).

B1: FKBP-228: combinatorial FKBP13 mutant construct of Table 10 (protein)
chain: HCPIKSRKGDVLHMHYTGKLEDGTEFDSSLPRNQPFVFSLGTGERIKGWDQGLLGMCEGEKRKLVIPSELGYGERGWPPKIPGGATLVFEVELLKIRR
modifications: Description of sequence: Construct Name: FKBP-228; Mutation(s): Q72R Q84E A117W V85R DRD E137R
In the test with Jurkat cells (FIG. 41), B1 yielded a Basal of 112, an FC of 85 and a Peak of 8896. Besides, in the test with Jurkat cells (FIG. 42, BR1 (Biorep 1)), the Basal amounted to 103, the FC is listed as 55.15 and the “At 10 uM” value is given as 5680. For the same molecule, in the test on Jurkat cells (FIG. 42, BR2 (Biorep 2)), the Basal was 99.6, the FC came to 60.71 and the “At 10 uM” value was 6047. Further, the “basal AcGFP expression” value in the test with Jurkat cells is reported as “lowest basal expression”. Also, in test [1] (setting [2]), the concentration for an effect of 90% (EC90) (as a rule, the concentration needed for an effect of 90%) was 116 nM. In test [1], the “FC (fold change)” value is listed as 55.1. For the same molecule, the EC90 in test [1] (setting [3]) amounted to 124 nM.

B2: FKBP-251: combinatorial FKBP13 mutant construct of Table 10 (protein)
chain: HCPIKSRKGDVLHMHYTGKLEDGTEFDSSLPRNQPFVFSLGTGERIKGWDQGLLGMCEGEKRKLVIPSELGYGERGWPPKIPGGATLVFFVELLKIER
modifications: Description of sequence: Construct Name: FKBP-251; Mutation(s): Q72R Q84E A117W V85R DRD E130F
As to B2, the Basal is 76 in the test with Jurkat cells (FIG. 40); 64 in the test on Jurkat cells (FIG. 46, BR1 (Biorep 1)); 46.1 in the test on Jurkat cells (FIG. 46, BR2 (Biorep 2)). Besides, the FC in the test on Jurkat cells (FIG. 40) stood at 100; with Jurkat cells (FIG. 46, BR1 (Biorep 1)), 97.61; in the test on Jurkat cells (FIG. 46, BR2 (Biorep 2)), 76.79; in the test with Jurkat cells (tacrolimus, FIG. 35), 92.03; in the test with Jurkat cells (tacrolimus, FIG. 36) it was 92.03; in the test with Jurkat cells (tacrolimus, FIG. 37), 92.03. In the test with Jurkat cells (tacrolimus, FIG. 38), this molecule displayed an FC of 92.03. The Peak in the test with Jurkat cells (FIG. 40) worked out at 7406; with Jurkat cells (tacrolimus, FIG. 35), 5078; with Jurkat cells (tacrolimus, FIG. 36) it was 5078; in the test with Jurkat cells (tacrolimus, FIG. 37) it was 5078; with Jurkat cells (tacrolimus, FIG. 38) it was 5078. Further, the “At 10 uM” value in the test on Jurkat cells (FIG. 46, BR1 (Biorep 1)) amounted to 6247; in the test with Jurkat cells (FIG. 46, BR2 (Biorep 2)), 3540. The “basal AcGFP expression” value in the test on Jurkat cells is listed as “lowest basal expression”. The EC90 in test [1] (setting [2]) was determined as 104 nM; in test [1] (setting [3]), 113 nM. For the same molecule, in test [1], the “FC (fold change)” value was 97.5.

B3: FKBP-215: combinatorial FKBP13 mutant construct of Table 10, carries M54A (protein)
chain: HCRIKSRKGDVLHAHYTGKLEDGTEFDSSLPRNQPFVFSLGTGGRIKGWDQGLLGMCEGEKRKLVIPSELGYGERGWPPKIPGGATLVFEVELLYIER
modifications: Description of sequence: Construct Name: FKBP-215; Mutation(s): Q72R Q84G A117W V85R DRD P43R M54A K135Y
Take B3: in the test with Jurkat cells (FIG. 48, BR1 (Biorep 1)), the Basal is 65, the FC was 51.05 and the “At 10 uM” value is reported as 3318. For the same molecule, in the test on Jurkat cells (FIG. 48, BR2 (Biorep 2)), the Basal was 59.4, the FC is listed as 53.30 and the “At 10 uM” value is reported as 3166. Also, the “basal AcGFP expression” value in the test with Jurkat cells is on record as “lowest basal AcGFP expression”. Moreover, the EC90 in test [1] (setting [2]) was found to be 388 nM. The “FC (fold change)” value in test [1] is reported as 51.0. Also, the EC90 in test [1] (setting [3]) worked out at 390 nM.
